This is an account of results in publication PMC12546588 (Nature Communications, 2025).

For orientation: stoichiometry N means a count of units in the complex or per binding partner.

For data set [1], the target named is human TRPC3 channel (hTRPC3), WT full length, tetramer in nanodiscs (human, UniProt Q13507). Description: cryo-EM structure.
The data set “cryo-EM structure” concerns the molecule itself. Description: cryo-EM structure.

B1: Nanobody 1-25 (VHH)
VHH: QVQLQESGGGSVQSGGSLRLSCAASGDKNYYMGWFRQAPGKEREGVAAIKSDGETRYADSSVTGRFTISQDNAKKTLYLQMTSLKPEDTAMYYCAADRYIGTRWKYVRPEDYSYWGQGTQVTVSS
For B1, in data set [1], the “stoichiometry N” value was 4 nanobody molecules per hTRPC3 tetramer.

B2: human TRPC3 channel (hTRPC3), WT full length, tetramer in nanodiscs (natural protein, UniProt Q13507 86-921, looked up)
chain: MREKGRRQAVRGPAFMFNDRGTSLTAEEERFLDAAEYGNIPVVRKMLEESKTLNVNCVDYMGQNALQLAVGNEHLEVTELLLKKENLARIGDALLLAISKGYVRIVEAILNHPGFAASKRLTLSPCEQELQDDDFYAYDEDGTRFSPDITPIILAAHCQKYEVVHMLLMKGARIERPHDYFCKCGDCMEKQRHDSFSHSRSRINAYKGLASPAYLSLSSEDPVLTALELSNELAKLANIEKEFKNDYRKLSMQCKDFVVGVLDLCRDSEEVEAILNGDLESAEPLEVHRHKASLSRVKLAIKYEVKKFVAHPNCQQQLLTIWYENLSGLREQTIAIKCLVVLVVALGLPFLAIGYWIAPCSRLGKILRSPFMKFVAHAASFIIFLGLLVFNASDRFEGITTLPNITVTDYPKQIFRVKTTQFTWTEMLIMVWVLGMMWSECKELWLEGPREYILQLWNVLDFGMLSIFIAAFTARFLAFLQATKAQQYVDSYVQESDLSEVTLPPEIQYFTYARDKWLPSDPQIISEGLYAIAVVLSFSRIAYILPANESFGPLQISLGRTVKDIFKFMVLFIMVFFAFMIGMFILYSYYLGAKVNAAFTTVEESFKTLFWSIFGLSEVTSVVLKYDHKFIENIGYVLYGIYNVTMVVVLLNMLIAMINSSYQEIEDDSDVEWKFARSKLWLSYFDDGKTLPPPFSLVPSPKSFVYFIMRIVNFPKCRRRRLQKDIEMGMGNSKSRLNLFTQSNSRVFESHSFNSILNQPTRYQQIMKRLIKRYVLKAQVDKENDEVNEGELKEIKQDISSLRYELLEDKSQATEELAILIHKLSEKLNPSMLRCE
On to B2, for which the “stoichiometry N” value in the data set “cryo-EM structure” was found to be 4 subunits.

B3: Nanobody 1-94 (VHH)
VHH: QVQLQESGGGSVQSGGSLRLSCAASGYTYSYSGYCMGWFRQAPGKEREGVATIDGAGNTKYADSVKGRFTISRDNAKKTLYLQMNSLKPEDTAMYYCAARVYSYSSDVDCRPSFTTRFPYSGQGTQVTV
On to B3, for which the “stoichiometry N” value in data set [1] was 4 nanobody molecules per hTRPC3 tetramer.

B4: Nanobody 3-37 (VHH)
VHH: QVQLQESGGGSVQSGGSLRLSCAASGYTYSRSCLGWFRQAPGKERERVATIDSDGSTSYADSVKGRFTISQDNAKNTLYLQMNSLKSEDTAMYYCASKYGSRCQNSLGYMYRGQGTQVTVSS
Take B4: the “stoichiometry N” value in data set [1] was 2 nanobody molecules per hTRPC3 tetramer.
